Reference: the supplement of paper PMC7877785
± gives the uncertainty stated by the source.

Test: self-splicing fitness, log relative to wild type (ln ratio); higher = more splicing; Tetrahymena group I intron in knt gene, E. coli kanamycin selection, DiMSum; sequences stand for … in CUCUCU…GGAGGGAAAAGUUAUCAGGCAUGCACCUGGUAGCUAGUCUUUAAACCAAUAGAUUGCAUCGGUUUAAAAGGCAAGACCGUCAAAUUGCGGGAAAGGGGUCAACAGCCGUUCAGUACCAAGUCUCAGGGGAAACUUUGAGAUGGCCUUGCAAAGGGUAUGGUAAUAAGCUGACGGACAUGGUCCUAACCACGCAGCCAAGUCCUAAGUCAACAGAUCUUCUGUUGAUAUGGAUGCAGUUCACAGACUAAAUGUCGGUCGGGGAAGAUGUAUUCUUCUCAUAAGAUAUAGUCGGACCUCUCCUUAAUGGGAGCUAGCGGAUGAAGUGAUGCAACACUGGAGCCGCUGGGAACUAAUUUGUAUGCGAAAGUAUAUUGAUUAGUUUUGGAGUACUCGUGGUCG
In short: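 The eight P1ex-region nucleotides of an intron in the knt kanamycin-resistance gene on pET-22b(+) were all randomised and the library put into E. coli BL21(DE3). Six replicate transformations were grown overnight at 37°C or 30°C on LB agar with or without 25 μg/mL kanamycin, together with 100 μg/mL carbenicillin, 50 μM IPTG and 0.2% rhamnose. Colonies were pooled and amplicon-sequenced on an Illumina HiSeq 2500. Fitness from DiMSum is the error-weighted combination of wild-type-normalised replicate fold changes, kanamycin over none.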

Sequence	self-splicing fitness (ln) (30 °C)	self-splicing fitness (ln) (37 °C)
GGCGAGCAAUAUUACGCCAG	-1 ± 0.18	-2.71 ± 0.44
GUCAAGCAAUAUUACGCAAG	-3.29 ± 0.18	-2.48 ± 0.18
CACCAGCAAUAUUACGGUAG	-1.97 ± 0.063	-1.69 ± 0.09
AGCCAGCAAUAUUACGUGCU	-3.62 ± 0.18	-2.06 ± 0.21
CAAUAGCAAUAUUACGCCCG	-0.472 ± 0.17	-0.0129 ± 0.23
GCCCAGCAAUAUUACGGUUU	0.123 ± 0.05	0.185 ± 0.063
CUCAAGCAAUAUUACGUUAC	-4.46 ± 0.31	-3.47 ± 0.29
UUCCAGCAAUAUUACGCCCG	-1.33 ± 0.15	-1.23 ± 0.17
CUACAGCAAUAUUACGUUGU	-3.66 ± 0.14	-3.95 ± 0.21
CGUGAGCAAUAUUACGUUUC	-3.19 ± 0.23	-2.23 ± 0.19
UCCUAGCAAUAUUACGGAAU	-3.08 ± 0.15	-2.1 ± 0.21
UAUUAGCAAUAUUACGUUAG	-2.33 ± 0.18	-1.62 ± 0.17
CAGUAGCAAUAUUACGUACA	-1.46 ± 0.14	-1.83 ± 0.16
AAGGAGCAAUAUUACGUGGU	-2.94 ± 0.2	-1.36 ± 0.22
UGACAGCAAUAUUACGUAUG	-1.56 ± 0.058	-0.368 ± 0.073
AAUCAGCAAUAUUACGGAGG	-1.01 ± 0.084	-1.18 ± 0.1
AGCAAGCAAUAUUACGAGCA	-0.456 ± 0.14	-0.101 ± 0.14
AUGCAGCAAUAUUACGAUUC	-2.72 ± 0.14	-0.939 ± 0.17
CACUAGCAAUAUUACGAAAA	-3.29 ± 0.33	-1.87 ± 0.26
AGCGAGCAAUAUUACGCGAC	-2.33 ± 0.27	
GCCCAGCAAUAUUACGCGCG	-2.16 ± 0.14	-0.815 ± 0.13
GACGAGCAAUAUUACGCCCU	-2.99 ± 0.25	-1.47 ± 0.19
AGCCAGCAAUAUUACGCUGG	-4.12 ± 0.26	-2.32 ± 0.26
ACUCAGCAAUAUUACGGGGU	-3.84 ± 0.19	-2.84 ± 0.2

Sequence	self-splicing fitness (ln) (30 °C)	self-splicing fitness (ln) (37 °C)
AUACAGCAAUAUUACGCCAA	-2.6 ± 0.19	-1.22 ± 0.18
GCAGAGCAAUAUUACGCGAA	-4.38 ± 0.24	-3.44 ± 0.21
GACGAGCAAUAUUACGUCAG		-1.66 ± 0.23
UCAUAGCAAUAUUACGUGCG	-1.26 ± 0.11	-0.279 ± 0.1
GAGCAGCAAUAUUACGGAUU	-1.2 ± 0.1	0.538 ± 0.11
CAUCAGCAAUAUUACGCUAG	-0.614 ± 0.075	-0.102 ± 0.093
GGAUAGCAAUAUUACGGCUG	-0.385 ± 0.14	-0.733 ± 0.18
AAGAAGCAAUAUUACGUACA	-0.642 ± 0.1	-0.0821 ± 0.12
GCCUAGCAAUAUUACGAUAA	-2.08 ± 0.12	-1.75 ± 0.14
AUCGAGCAAUAUUACGCGUC	-2.85 ± 0.21	-2.7 ± 0.43
GAAGAGCAAUAUUACGAAGG	-2.75 ± 0.17	-3.62 ± 0.46
GAUGAGCAAUAUUACGAAGA	-3.25 ± 0.17	-0.937 ± 0.14
GUCCAGCAAUAUUACGACAG	-3.57 ± 0.36	-1.93 ± 0.41
CGGAAGCAAUAUUACGAUUA	-1.17 ± 0.18	-1.56 ± 0.16
UUGUAGCAAUAUUACGCAUC	-3.41 ± 0.34	-3.19 ± 0.43
UGAAAGCAAUAUUACGGGGC	-3.89 ± 0.23	-2.73 ± 0.19
CGUAAGCAAUAUUACGGGAU	-3.63 ± 0.18	-3.29 ± 0.35
AUUCAGCAAUAUUACGGGAA	-1.36 ± 0.12	-0.871 ± 0.13
GUACAGCAAUAUUACGUGCU	-3.17 ± 0.18	-3.14 ± 0.24
CCGGAGCAAUAUUACGUUCG	-4.36 ± 0.46	-1.92 ± 0.46
GCAAAGCAAUAUUACGGCAG	-3.61 ± 0.22	-2.81 ± 0.31
UAGAAGCAAUAUUACGUCUA	-1.81 ± 0.16	-0.539 ± 0.14
UCUCAGCAAUAUUACGACAA	-1.98 ± 0.25	-1.31 ± 0.27
